B1: H1_1_LC2 (antibody, V domains shown)
VH: EVQLVESGGGLVQPGGSLRLSCAASGFTFSKAAMYWVRQAPGKGLELVSRIRTKPNNYATYHADSVKGRFTISRDNSKNTLYLQMNSLRAEDTAVYYCTADMATGDYWGQGTLVTVSS
VL: DIQMTQSPSSLSASVGDRVTITCKASQNINKNLDWYQQKPGKAPKPLIYSTNNLQTGVPSRFSGSGSGTDFTLTISSLQPEDFATYYCYQYKSAWTFGQGTKVEIK
B2: H2_4_LC2 (antibody, V domains shown)
VH: EVQLVESGGGLVQPGGSLRLSCAASGFTFSNAAMYWVRQAPGKGLELVSRIRTKRNNYATYHADSVKGRFTISRDNSKNTLYLQMNSLRAEDTAVYYCTADMATGDYWGQGTLVTVSS
VL: DIQMTQSPSSLSASVGDRVTITCKASQNINKNLDWYQQKPGKAPKPLIYSTNNLQTGVPSRFSGSGSGTDFTLTISSLQPEDFATYYCYQYKSAWTFGQGTKVEIK
B3: HC2_L1_2 (antibody, V domains shown)
VH: EVQLVESGGGLVQPGGSLRLSCAASGFTFSNAAMYWVRQAPGKGLELVSRIRTKPNNYATYHADSVKGRFTISRDNSKNTLYLQMNSLRAEDTAVYYCTADMATGDYWGQGTLVTVSS
VL: DIQMTQSPSSLSASVGDRVTITCKASQIINQILDWYQQKPGKAPKPLIYSTNNLQTGVPSRFSGSGSGTDFTLTISSLQPEDFATYYCYQYKSAWTFGQGTKVEIK
B4: H2_3_LC2 (antibody, V domains shown)
VH: EVQLVESGGGLVQPGGSLRLSCAASGFTFSNAAMYWVRQAPGKGLELVSRIRTERNNYATYHADSVKGRFTISRDNSKNTLYLQMNSLRAEDTAVYYCTADMATGDYWGQGTLVTVSS
VL: DIQMTQSPSSLSASVGDRVTITCKASQNINKNLDWYQQKPGKAPKPLIYSTNNLQTGVPSRFSGSGSGTDFTLTISSLQPEDFATYYCYQYKSAWTFGQGTKVEIK
B5: HC2_L2_2 (antibody, V domains shown)
VH: EVQLVESGGGLVQPGGSLRLSCAASGFTFSNAAMYWVRQAPGKGLELVSRIRTKPNNYATYHADSVKGRFTISRDNSKNTLYLQMNSLRAEDTAVYYCTADMATGDYWGQGTLVTVSS
VL: DIQMTQSPSSLKSSVGDRVTITCKASQNINKNLDWYQQKPGKAPKPLIYRTKNLQTGVPSRFSGSGSGTDFTLTISSLQPEDFATYYCYQYKSAWTFGQGTKVEIK
B6: HC2_L2_1 (antibody, V domains shown)
VH: EVQLVESGGGLVQPGGSLRLSCAASGFTFSNAAMYWVRQAPGKGLELVSRIRTKPNNYATYHADSVKGRFTISRDNSKNTLYLQMNSLRAEDTAVYYCTADMATGDYWGQGTLVTVSS
VL: DIQMTQSPSSLSASVGDRVTITCKASQNINKNLDWYQQKPGKAPKPLIYSTNKLKTGVPSRFSGSGSGTDFTLTISSLQPEDFATYYCYQYKSAWTFGQGTKVEIK
B7: H3_4_LC2 (antibody, V domains shown)
VH: EVQLVESGGGLVQPGGSLRLSCAASGFTFSNAAMYWVRQAPGKGLELVSRIRTKPNNYATYHADSVKGRFTISRDNSKNTLYLQMNSLRAEDTAVYYCSADFAKGDYWGQGTLVTVSS
VL: DIQMTQSPSSLSASVGDRVTITCKASQNINKNLDWYQQKPGKAPKPLIYSTNNLQTGVPSRFSGSGSGTDFTLTISSLQPEDFATYYCYQYKSAWTFGQGTKVEIK
B8: H2_2_LC2 (antibody, V domains shown)
VH: EVQLVESGGGLVQPGGSLRLSCAASGFTFSNAAMYWVRQAPGKGLELVSRIRTQRNNYATYHADSVKGRFTISRDNSKNTLYLQMNSLRAEDTAVYYCTADMATGDYWGQGTLVTVSS
VL: DIQMTQSPSSLSASVGDRVTITCKASQNINKNLDWYQQKPGKAPKPLIYSTNNLQTGVPSRFSGSGSGTDFTLTISSLQPEDFATYYCYQYKSAWTFGQGTKVEIK
B9: H2_1_LC2 (antibody, V domains shown)
VH: EVQLVESGGGLVQPGGSLRLSCAASGFTFSNAAMYWVRQAPGKGLELVSRIRTKPNNFATYHADSVKGRFTISRDNSKNTLYLQMNSLRAEDTAVYYCTADMATGDYWGQGTLVTVSS
VL: DIQMTQSPSSLSASVGDRVTITCKASQNINKNLDWYQQKPGKAPKPLIYSTNNLQTGVPSRFSGSGSGTDFTLTISSLQPEDFATYYCYQYKSAWTFGQGTKVEIK
B10: H3_1_LC2 (antibody, V domains shown)
VH: EVQLVESGGGLVQPGGSLRLSCAASGFTFSNAAMYWVRQAPGKGLELVSRIRTKPNNYATYHADSVKGRFTISRDNSKNTLYLQMNSLRAEDTAVYYCTANMATGDYWGQGTLVTVSS
VL: DIQMTQSPSSLSASVGDRVTITCKASQNINKNLDWYQQKPGKAPKPLIYSTNNLQTGVPSRFSGSGSGTDFTLTISSLQPEDFATYYCYQYKSAWTFGQGTKVEIK
B11: H1_6_LC2 (antibody, V domains shown)
VH: EVQLVESGGGLVQPGGSLRLSCAASGFNFSKAAMYWVRQAPGKGLELVSRIRTKPNNYATYHADSVKGRFTISRDNSKNTLYLQMNSLRAEDTAVYYCTADMATGDYWGQGTLVTVSS
VL: DIQMTQSPSSLSASVGDRVTITCKASQNINKNLDWYQQKPGKAPKPLIYSTNNLQTGVPSRFSGSGSGTDFTLTISSLQPEDFATYYCYQYKSAWTFGQGTKVEIK
B12: H1_4_LC2 (antibody, V domains shown)
VH: EVQLVESGGGLVQPGGSLRLSCAASGFTFNKAAMYWVRQAPGKGLELVSRIRTKPNNYATYHADSVKGRFTISRDNSKNTLYLQMNSLRAEDTAVYYCTADMATGDYWGQGTLVTVSS
VL: DIQMTQSPSSLSASVGDRVTITCKASQNINKNLDWYQQKPGKAPKPLIYSTNNLQTGVPSRFSGSGSGTDFTLTISSLQPEDFATYYCYQYKSAWTFGQGTKVEIK
B13: H3_5_LC2 (antibody, V domains shown)
VH: EVQLVESGGGLVQPGGSLRLSCAASGFTFSNAAMYWVRQAPGKGLELVSRIRTKPNNYATYHADSVKGRFTISRDNSKNTLYLQMNSLRAEDTAVYYCTADFARGDYWGQGTLVTVSS
VL: DIQMTQSPSSLSASVGDRVTITCKASQNINKNLDWYQQKPGKAPKPLIYSTNNLQTGVPSRFSGSGSGTDFTLTISSLQPEDFATYYCYQYKSAWTFGQGTKVEIK
B14: H1_5_LC2 (antibody, V domains shown)
VH: EVQLVESGGGLVQPGGSLRLSCAASGFKFSKAAMYWVRQAPGKGLELVSRIRTKPNNYATYHADSVKGRFTISRDNSKNTLYLQMNSLRAEDTAVYYCTADMATGDYWGQGTLVTVSS
VL: DIQMTQSPSSLSASVGDRVTITCKASQNINKNLDWYQQKPGKAPKPLIYSTNNLQTGVPSRFSGSGSGTDFTLTISSLQPEDFATYYCYQYKSAWTFGQGTKVEIK
B15: H2_6_LC2 (antibody, V domains shown)
VH: EVQLVESGGGLVQPGGSLRLSCAASGFTFSNAAMYWVRQAPGKGLELVSRIRTKPKNYATYHADSVKGRFTISRDNSKNTLYLQMNSLRAEDTAVYYCTADMATGDYWGQGTLVTVSS
VL: DIQMTQSPSSLSASVGDRVTITCKASQNINKNLDWYQQKPGKAPKPLIYSTNNLQTGVPSRFSGSGSGTDFTLTISSLQPEDFATYYCYQYKSAWTFGQGTKVEIK
B16: H1_3_LC2 (antibody, V domains shown)
VH: EVQLVESGGGLVQPGGSLRLSCAASGFTFSRAAMYWVRQAPGKGLELVSRIRTKPNNYATYHADSVKGRFTISRDNSKNTLYLQMNSLRAEDTAVYYCTADMATGDYWGQGTLVTVSS
VL: DIQMTQSPSSLSASVGDRVTITCKASQNINKNLDWYQQKPGKAPKPLIYSTNNLQTGVPSRFSGSGSGTDFTLTISSLQPEDFATYYCYQYKSAWTFGQGTKVEIK
B17: HC2_L1_1 (antibody, V domains shown)
VH: EVQLVESGGGLVQPGGSLRLSCAASGFTFSNAAMYWVRQAPGKGLELVSRIRTKPNNYATYHADSVKGRFTISRDNSKNTLYLQMNSLRAEDTAVYYCTADMATGDYWGQGTLVTVSS
VL: DIQMTQSPSSLSASVGDRVTITCKASQNINNNLDWYQQKPGKAPKPLIYSTNNLKTGVPSRFSGSGSGTDFTLTISSLQPEDFATYYCYQYKSAWTFGQGTKVEIK
B18: H3_3_LC2 (antibody, V domains shown)
VH: EVQLVESGGGLVQPGGSLRLSCAASGFTFSNAAMYWVRQAPGKGLELVSRIRTKPNNYATYHADSVKGRFTISRDNSKNTLYLQMNSLRAEDTAVYYCAAAMARGDYWGQGTLVTVSS
VL: DIQMTQSPSSLSASVGDRVTITCKASQNINKNLDWYQQKPGKAPKPLIYSTNNLQTGVPSRFSGSGSGTDFTLTISSLQPEDFATYYCYQYKSAWTFGQGTKVEIK
B19: H1_2_LC2 (antibody, V domains shown)
VH: EVQLVESGGGLVQPGGSLRLSCAASGFRFSKAAMYWVRQAPGKGLELVSRIRTKPNNYATYHADSVKGRFTISRDNSKNTLYLQMNSLRAEDTAVYYCTADMATGDYWGQGTLVTVSS
VL: DIQMTQSPSSLSASVGDRVTITCKASQNINKNLDWYQQKPGKAPKPLIYSTNNLQTGVPSRFSGSGSGTDFTLTISSLQPEDFATYYCYQYKSAWTFGQGTKVEIK
B20: H3_6_LC2 (antibody, V domains shown)
VH: EVQLVESGGGLVQPGGSLRLSCAASGFTFSNAAMYWVRQAPGKGLELVSRIRTKPNNYATYHADSVKGRFTISRDNSKNTLYLQMNSLRAEDTAVYYCTANMRKGDYWGQGTLVTVSS
VL: DIQMTQSPSSLSASVGDRVTITCKASQNINKNLDWYQQKPGKAPKPLIYSTNNLQTGVPSRFSGSGSGTDFTLTISSLQPEDFATYYCYQYKSAWTFGQGTKVEIK
B21: H3_2_LC2 (antibody, V domains shown)
VH: EVQLVESGGGLVQPGGSLRLSCAASGFTFSNAAMYWVRQAPGKGLELVSRIRTKPNNYATYHADSVKGRFTISRDNSKNTLYLQMNSLRAEDTAVYYCTANMAKGDYWGQGTLVTVSS
VL: DIQMTQSPSSLSASVGDRVTITCKASQNINKNLDWYQQKPGKAPKPLIYSTNNLQTGVPSRFSGSGSGTDFTLTISSLQPEDFATYYCYQYKSAWTFGQGTKVEIK
B22: H2_5_LC2 (antibody, V domains shown)
VH: EVQLVESGGGLVQPGGSLRLSCAASGFTFSNAAMYWVRQAPGKGLELVSRIRTEPNNYATYHADSVKGRFTISRDNSKNTLYLQMNSLRAEDTAVYYCTADMATGDYWGQGTLVTVSS
VL: DIQMTQSPSSLSASVGDRVTITCKASQNINKNLDWYQQKPGKAPKPLIYSTNNLQTGVPSRFSGSGSGTDFTLTISSLQPEDFATYYCYQYKSAWTFGQGTKVEIK

For orientation: Kd means the equilibrium constant for the complex coming apart. A low value points to higher affinity.

This assay has as its target human alpha-synuclein monomer (human, UniProt P37840 1-140). The assay can be described thus: SPR (Biacore 8K), IgG captured on anti-human Fc, aSyn monomer injected.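 Also: aSyn injected as a dilution series, signal corrected against a reference cell holding an irrelevant IgG, Kd from one-to-one Langmuir kinetic fitting of kon and koff.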
Description: Serial 3-fold dilutions of aSyn were injected at a flow rate of 30 μL/min. Each sample was analyzed using a 3-minute association and a 10-minute dissociation. After each injection, the chip was regenerated using 3 M MgCl₂. Binding response was corrected by subtracting the RU from a flow cell capturing an irrelevant IgG at similar density. A 1:1 Languir model of simultaneous fitting of kₒₙ and koff was used for kinetics analysis.
With B1, the Kd stood at 3.46 nM.

Molecule B2 displayed a Kd of 8.35 nM.

For B3, the Kd stood at 2.45 nM.

In the case of B4, the Kd is 4.76 nM.

The molecule B5 yielded a Kd of 2.01 nM.

Turning to B6, the Kd stood at 1.78 nM.

B7 yielded a Kd of 4.64 nM.

On to B8, for which the Kd worked out at 5.93 nM.

As for B9, the Kd turned out to be 6.18 nM.

On to B10, for which the Kd was 4.79 nM.

As for B11, the Kd was determined as 3.91 nM.

B12 registered a Kd of 3.55 nM.

On to B13, for which the dissociation constant (Kd) amounted to 3.84 nM.

B14 came in with a Kd of 4.61 nM.

B15 showed a Kd of 7.75 nM.

With B16, the dissociation constant Kd came to 4.04 nM.

With B17, the Kd was found to be 1.2 nM.

Molecule B18 displayed a Kd of 5.3 nM.

In turn, B19 showed a Kd of 3.53 nM.

Regarding B20, the affinity, expressed as Kd, was 10.3 nM.

B21: the Kd is 4.92 nM.

As for B22, the equilibrium dissociation constant (Kd) turned out to be 5.5 nM.

These data come from US20230074436A1 (DENALI THERAPEUTICS, published 2023).
